Assay [1] has as its target Lysine-specific gingipain (Kgp), purified (Porphyromonas gingivalis) (UniProt Q51817). Put plainly: progress curve analysis of protease inhibition.
The target of assay [2] is Arginine-specific gingipain RgpB (Porphyromonas gingivalis) (UniProt P95493). Put plainly: progress curve analysis of protease inhibition.
Assay [3] addresses Lysine-specific gingipain (Kgp), purified (Porphyromonas gingivalis) (UniProt Q51817). Put plainly: titration of residual protease activity.
In assay [4] the target is Arginine-specific gingipain RgpB (Porphyromonas gingivalis) (UniProt P95493). Kind of assay: titration of residual protease activity.
The target in assay [5] is Thiol protease (Tpr) (Porphyromonas gingivalis) (UniProt P25806). Kind of assay: progress curve analysis of protease inhibition.
Sequence of UniProt P25806 (P25806 whole entry): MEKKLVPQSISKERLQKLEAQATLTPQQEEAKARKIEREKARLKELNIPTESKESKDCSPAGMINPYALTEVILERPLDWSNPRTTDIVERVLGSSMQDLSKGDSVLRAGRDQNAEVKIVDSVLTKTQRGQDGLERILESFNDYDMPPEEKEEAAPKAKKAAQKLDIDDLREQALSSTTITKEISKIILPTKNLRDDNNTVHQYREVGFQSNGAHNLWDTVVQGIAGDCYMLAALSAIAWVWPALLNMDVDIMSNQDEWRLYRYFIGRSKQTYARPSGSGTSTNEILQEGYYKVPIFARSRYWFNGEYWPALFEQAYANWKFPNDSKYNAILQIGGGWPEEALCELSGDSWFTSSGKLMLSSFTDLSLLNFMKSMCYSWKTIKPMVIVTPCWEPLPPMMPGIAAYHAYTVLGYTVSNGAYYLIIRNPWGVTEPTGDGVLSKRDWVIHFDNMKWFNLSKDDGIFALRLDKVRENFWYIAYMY
The target is the same in assay [6]. Kind of assay: titration of residual protease activity.

Sequence of UniProt Q51817 (Q51817 25-1732): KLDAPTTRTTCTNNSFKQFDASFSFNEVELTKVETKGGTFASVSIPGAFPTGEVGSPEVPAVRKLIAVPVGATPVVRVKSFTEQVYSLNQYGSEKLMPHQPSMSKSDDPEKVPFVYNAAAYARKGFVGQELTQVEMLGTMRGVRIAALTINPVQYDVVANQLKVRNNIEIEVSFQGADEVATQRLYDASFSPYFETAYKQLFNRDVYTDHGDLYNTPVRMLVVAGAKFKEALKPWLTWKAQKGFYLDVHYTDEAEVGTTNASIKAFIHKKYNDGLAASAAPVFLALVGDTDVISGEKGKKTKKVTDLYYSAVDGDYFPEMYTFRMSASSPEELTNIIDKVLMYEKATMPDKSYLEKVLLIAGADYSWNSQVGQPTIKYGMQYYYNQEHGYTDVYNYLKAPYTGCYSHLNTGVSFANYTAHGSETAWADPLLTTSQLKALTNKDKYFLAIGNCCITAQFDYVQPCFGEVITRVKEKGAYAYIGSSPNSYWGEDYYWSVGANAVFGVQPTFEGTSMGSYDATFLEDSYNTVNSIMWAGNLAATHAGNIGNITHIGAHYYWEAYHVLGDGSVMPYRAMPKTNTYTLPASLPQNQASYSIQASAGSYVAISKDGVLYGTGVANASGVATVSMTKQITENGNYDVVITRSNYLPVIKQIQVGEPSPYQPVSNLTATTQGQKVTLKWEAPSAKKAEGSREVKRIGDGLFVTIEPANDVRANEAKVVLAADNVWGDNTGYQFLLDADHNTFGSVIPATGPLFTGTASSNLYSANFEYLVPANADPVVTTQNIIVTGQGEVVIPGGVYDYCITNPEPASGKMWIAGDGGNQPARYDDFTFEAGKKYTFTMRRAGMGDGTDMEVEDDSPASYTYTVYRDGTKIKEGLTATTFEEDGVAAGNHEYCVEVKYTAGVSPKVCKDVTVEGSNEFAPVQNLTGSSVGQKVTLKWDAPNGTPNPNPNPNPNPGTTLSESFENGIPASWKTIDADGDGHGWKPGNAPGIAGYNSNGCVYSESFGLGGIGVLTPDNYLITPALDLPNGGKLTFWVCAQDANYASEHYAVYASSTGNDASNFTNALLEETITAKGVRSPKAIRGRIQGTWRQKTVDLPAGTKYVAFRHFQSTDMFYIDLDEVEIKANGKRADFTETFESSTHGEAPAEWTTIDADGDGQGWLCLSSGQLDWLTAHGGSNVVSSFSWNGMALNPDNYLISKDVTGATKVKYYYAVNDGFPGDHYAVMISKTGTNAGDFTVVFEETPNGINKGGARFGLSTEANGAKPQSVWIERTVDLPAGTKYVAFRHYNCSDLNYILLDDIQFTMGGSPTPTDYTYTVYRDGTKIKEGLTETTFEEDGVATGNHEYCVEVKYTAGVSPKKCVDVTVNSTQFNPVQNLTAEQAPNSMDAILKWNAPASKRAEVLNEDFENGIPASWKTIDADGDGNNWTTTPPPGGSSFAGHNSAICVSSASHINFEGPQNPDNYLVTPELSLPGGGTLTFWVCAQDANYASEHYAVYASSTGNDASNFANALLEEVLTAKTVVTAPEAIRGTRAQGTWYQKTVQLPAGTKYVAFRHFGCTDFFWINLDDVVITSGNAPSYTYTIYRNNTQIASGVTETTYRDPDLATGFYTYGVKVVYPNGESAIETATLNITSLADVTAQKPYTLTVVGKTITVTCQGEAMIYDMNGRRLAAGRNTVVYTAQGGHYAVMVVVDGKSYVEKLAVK
Sequence of UniProt P95493 (P95493 25-736): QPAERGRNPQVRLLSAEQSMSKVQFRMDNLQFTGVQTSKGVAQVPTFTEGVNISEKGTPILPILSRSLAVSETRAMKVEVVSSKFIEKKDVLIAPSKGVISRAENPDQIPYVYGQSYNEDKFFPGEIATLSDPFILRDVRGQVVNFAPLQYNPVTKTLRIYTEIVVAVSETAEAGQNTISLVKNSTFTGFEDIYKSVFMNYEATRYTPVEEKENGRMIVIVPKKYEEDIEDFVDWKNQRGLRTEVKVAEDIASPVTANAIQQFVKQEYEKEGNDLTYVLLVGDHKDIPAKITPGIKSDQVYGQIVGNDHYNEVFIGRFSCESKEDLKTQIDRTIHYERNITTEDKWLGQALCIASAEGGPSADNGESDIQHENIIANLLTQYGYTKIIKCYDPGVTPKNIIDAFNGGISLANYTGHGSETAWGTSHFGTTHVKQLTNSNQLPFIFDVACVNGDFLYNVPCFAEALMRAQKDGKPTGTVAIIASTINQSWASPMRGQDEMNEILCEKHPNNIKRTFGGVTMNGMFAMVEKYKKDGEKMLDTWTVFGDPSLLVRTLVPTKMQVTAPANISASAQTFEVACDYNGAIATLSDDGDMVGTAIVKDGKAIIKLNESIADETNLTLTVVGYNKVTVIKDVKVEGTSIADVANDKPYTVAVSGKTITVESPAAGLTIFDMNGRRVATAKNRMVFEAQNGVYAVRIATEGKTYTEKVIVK

Take RVK-miropin (natural protein): the results for the on-rate constant (kon) in assay [1] and in assay [2] were 330000 M⁻¹ s⁻¹ and 740000 M⁻¹ s⁻¹, respectively. Also, the stoichiometry of inhibition (SI) in assay [3] and in assay [4] was 1.7 throughout.

In the case of “Recombinant wild-type miropin (VKT-mir) (natural protein)”, the values for the kon in assay [5] and in assay [1] were 2500 M⁻¹ s⁻¹ and 220000 M⁻¹ s⁻¹, respectively. The stoichiometry of inhibition (SI) in assay [6] worked out at 9.3; in assay [3] it was 1.9.

These data come from paper doi:10.1101/2025.09.05.674453.
